Assay: label from the status in PepcDB records

Sequence: MKMGMVFVFVLLTVFMAVMSSTRVSAQSNCKNELKKSLKPCFSYLTSSYPSLPDDSDCCPSLLDISKTSVDCFCQYLNSGGSILDINANFIQARRLPEICGVDPYLASVCNEGKNFLTSIYEETPIL
- protein production: failed

Sequence: MKMKHAFGPIILACVLFFIIILIPSKSLVSLISDKKVEDAATSLQKEKLQSVFLQQKMLENSQYLPMYGSSEFLRMDAYHPSNYFKVNPAGFTPFLIGTGGTQSLAHILNMTSTMDELEGKKVVFVLSPQWFTKTGVSQGDFTNNFSKQQAYHFIFNDKINPEMKKQIAKRLLDYKVVQEDDILKNSLEGIVYNDSKHNIKAGLVKPLAYMHRNILDHRDLFNSLFKIEPMKEKTNIGLRSISWEDARKHAEQEGKAESTTNTFGIENPYYHKNNLKKKLKGLKNFRANETYDESPEYDDLQIILELFKEKNVKPLFISVPVNGPWYDYTGFPKERREVYYKKVREQVEKAGYPVIDFSGHEYDKYFLKDTIHLGWKGWIYFDEAVQKFYSEKLEHHHHHH
- protein production: not failed

Sequence: MKKLSFFLIATLSLGACSTATSPTGRHQVFSGVSQQQLNQLGEQAFVEIKAKEKISGNVRQNAYVRCVVDALVTELPLQWRHVKWETVLFLNEEPNAFALPGGKVGVNTGIFRAAKNQEQLAAVLGHEIGHVVSRHHEERITWQLGTQAGLGLLGVLAGTAYGDSAATAVNQIGGLTAQAAFLLPGSRTQEREADIVGQRLMAQAGFDPIQAVYLWKNMLAIAGQRPPQWLSTHPDPTNRIRQLEQQSAVLASVYAQARDAGRVPHCSPAALEHHHHHH
- protein production: failed

Sequence: MGIREDIKTVFEKDPAARSTLEVLCCYPGLHAIWMHRVAHSLWNKDLLFLARLTSHISRALTGIEIHPGAKLGKRVFIDHGSGVVIGETAEVGDDVLIYMGVVLGGTALEKKKRHPTVENNAVLGSGAIVLGPITIGRGAKVGAGSVVVRSVPPEATVVGVPARIAGTPQPSAPSEQLDHNKLPDPVLTVISQVLDRMSRLEERFQAHEKASTTPVPVSFVSSENPSVKKDEQIYSLLKDVIDPAVGIDIVNLGFVKEVTVNGTNVDVNLVLTTSACPMIEYFRNQVKRKVMGIKGIENVTVNILDEPWKWDGAGRQAFH
- protein production: failed

Sequence: MAEVKTRDEHDEEPPRFDAQAATIAPETILLHPGPAAIVALGGGEALCNALGEPLRPLFSPEAADSLLPEIRSALETGVPQQKVVDVGRDGLPAQFDLIILPTAEPGRVVVIGRDVTLERTLRKALTDSRQRYKDFVDLSIDFTWETGPDGRFVFVSPDGALGYAARDLVGALPWTLMDITDAQSGATVFNSPVRVKDVDIWVRRRDGTLACLKTSSMPVFDASGEWSGGRGVCHDITEQHDRDKALARALNRQRVVANVERTFRDEIDPSNMLNVAAEALARSVGGDGCLIYRAALDDGPDRPFLPRGRFGEGGDEKVVLTLEALGEGAHAQTTPDGKWTVLVAASRYRRQINGAVVLWRRIERGAWSEDDHLLIVDVANQIGSANEQIGQHDRIISMSRTDGLTGLLNRRAFFDDMDRRLKGPPGLVERRAGEEAARRSERPARSALLYIDLDNFKWVNDAHGHLRGDEALMTVRKILTDHTRATDIVARLGGDEFAIWLEGADAEAASAKAAEILAEDALLRPFDGSPDRPLSLSIGLAIHDPASGEGVEDLTARADMAMYAAKHGGKGRFSLSLPPPHTPT
- protein production: failed

Sequence: MNVKRIKKRMFITFSIIAVLAIALYIFLQTAPFGNPPADARLERIRKSANYKDGVFKNLSNTPVMAEDASYMDMIKQQFSKDSTREPAVCIPSVKRDLSLVPSDRPVITWFGHSTYLIQTEGKNILIDPVFCTSTSPVQFVGNKKYKGTEVYTPADFPAINYLILTHDHYDHLDYQTTLDMQSKVFSYYMPLGVGSHLESWGIDTAKLHELDWWQEIDLEPGYKLVCLPARHFSGRSITDRGKTLWASYLLITPTHKIYIGGDSGYDTHFKQIADKYGAVDIAFLESGQYNAYWPYIHMMPEQTVQAAKDLQAKVLLPVHWGKYTLALHPWDEPIKRLTLEAHKQQVNVATPMIGEPVILDSILPHSTWWVPEGKK
- protein production: failed

Sequence: MSLLESIAVVINLLGVWLTARRIRWCWPVGIVAVALYAWLFYQWKLYSDMLLQGVYVLTQLYGWWHWQPGTAADTRIRPLPMPSAERWLSLGIGAAFAATLGAYMHYRTDAVLPWLDAALASFSLVASVWAARKRIANWVLWIVLDCVYVGVFISKGLYPTAVLYAGFVALAVYGWHSWKTQQNQNLAVAR
- protein production: failed

Sequence: MRRSGAASRPASRGARTAYIGAMSRSTPPATTRIVCIRHGESTFNAHHEATGRDPGHIDARLSERGHAQVAAARAALRAIPFELVVTSPLTRALQTTAGIFSDHPARPDVLVEVLHRECQESSCDIGRAASVLAQEFPAFKVGHLPETWWYADGEAGPDGWHVEPRTLFDQRVSGFRDWLRARPERTIGVVGHCTFFYHLTGRWLANCEALDVDLTAEPRPRAYG
- protein production: failed

Sequence: MFKVPKQSYTAEFKAAAVQRVKDGQGVGAVARELSVSEQTLRNWMKAEQAGKLGGAGAKVVTPEQMELSRLRAENKRLQMELEIAKKAAAYFAKDLL
- protein production: failed

Sequence: MYEPPNQFHCLDADVWIEIPNRVIGVTGNCYVGRDYIPKNGKTRYDVKVFVKKIKKEQENPDTLIKDNDLELSKSKSDDIGTLIEKGVNLRNFKKYDEALQIFEKVTELEPSNAQAWHNKGIILGILKKYNEARQAFEKAMEIEPGKNRRDCSSRHLRSARNRTSERNQGSNVEQ
- protein production: failed

Sequence: MGNKKEIAIVALTTGFVLTSVTPYGVGHAEETGQMQVEIQEDSFRTGDLTQPSKKAPENVVKDALKENTEHALSPKQVSAETGVDYKVLQKRGSYDGTTLVRMQQIYEGKEVYGHQLTAHVDKKGIIKSISGASAQNLTQEDLKKPINLSKEEAKQYIYKKYGNDTKFISEPEVKAVIFVDENHGQASNAYQVTFAATTPNYVSGTYLVNAHNGEMLKDMVQESSLKISEEYVESVKENKTSNFTSLTGTGKDDLGVTRTFGISKQTSGNYALADYTRGQGIETYDVNYRDITNEESYYPGILATSVSTTFNDPKAVSAHFLATKVYDFYKEKYKRNSFDNKGKKVVSVVHAWDSGGTNDPENWENAFSTNINNISMLLYGDPMVKAFDIAGHEFTHAVTSSESNLEFSGESGAINEALSDIMGTAIEKYINNGEFNWTIGEQTGSTFRNMKNPTAINFSEGLPYPDDYSKYNDLNGEDYGGVHFNSSIINKVAYLMAQGGTHNGVNVNGIGEDRMFDIFYYANTDELNMTSNFSELKLACLKVATNKYGANSIEVQAVQNAFDAAKITGTVKENEKTAENQAPELTVPFTITLRVGDTFDPMRNVKAVDKEDGDLTNKVKHKGDVDTSKPGTYIVEYMVVDSQGRNATATQTVIVEGNGETSDLEPKLTVPVGATIHVGDSFVPMAEVLAIDKEDGDLTSKIKVDGEVDTTKAGTYVLTYTVTDSKGHEVTAKQTVTVKVREEVKNDKPILKVPATTSITEGDQFDPLVGVSATDKEDGDLISKVAYEGTIDTTKAGTYEIIYSVRDSVGNEVNAIQKVLVKDKETSKANGLANKENKSNISNNSNSDKKEYTYKELPKTGVSTTNSAAIGILIIIVGTVLTLVRKFRKIQK
- protein production: failed

Sequence: MAASMARGVSARVLLRAAGGSWGPRAGHAAVTSRTFGSTGERRAGEDEADSPELPRDVVNVVFVDRSGKRIPVRGRVGDNVLHLAQRHGVDLEGACEASLACSTCHVYVSEAHLDLLPPPEEREDDMLDMAPLLQENSRLGCQIVLTPELEGAEFALPKITRNFYVDGHIPKPH
- protein production: failed

Sequence: MIKGGGGKSSGYSADLMVCFPSRAHLSLPSKSISSPSSSFNRRQNAPHHRRSISKLSSSGGGVRQNRGGGREVVEEPTSPKVTCAGQIKVRSSKRDGGGKNWQSLMAEIEKIHRSKSESKFFGIKRDVMGFLTCLRDFDFRCFGAFPPVDIISDDEEEDEEEEEEDEEEDEDESSGTVFSKWLMVLHEKQNNEECVDGKENVFSDVETAVPPPNALLLMRCRSAPVKNWSEEKKEETEEGDNRVKQSGEEEEEEKDRVGNKKDLRSLMEEEKKMNLVVMNYDTNYYKLSNDIAKETWVVGGIQDPLFRSRSWKK
- protein production: failed

Sequence: MTERGLLIVLSGPSGVGKGTVREAVFKDPETSFDYSISMTTRLPREGEQDGVDYYFRSREVFEQAIKDGKMLEYAEYVGNYYGTPLEYVEEKLAAGVDIFLEIEVQGAMQVRKAMPEGIFIFLTPPDLSELKNRIIGRGTESMEVVEERMETAKKEIEMMASYDYAVVNDVVANAVQKIKGIVETEHLKTERVIHRYKKMLEGLQ
- protein production: not failed

Sequence: MASNMDREMILADFQACTGIENIDEAITLLEQNNWDLVAAINGVIPQENGILQSEYGGETIPGPAFNPASHPASAPTSSSSSAFRPVMPSRQIVERQPRMLDFRVEYRDRNVDVVLEDTCTVGEIKQILENELQIPVSKMLLKGWKTGDVEDSTVLKSLHLPKNNSLYVLTPDLPPPSSSSHAGALQESLNQNFMLIITHREVQREYNLNFSGSSTIQEVKRNVYDLTSIPVRHQLWEGWPTSATDDSMCLAESGLSYPCHRLTVGRRSSPAQTREQSEEQITDVHMVSDSDGDDFEDATEFGVDDGEVFGMASSALRKSPMMPENAENEGDALLQFTAEFSSRYGDCHPVFFIGSLEAAFQEAFYVKARDRKLLAIYLHHDESVLTNVFCSQMLCAESIVSYLSQNFITWAWDLTKDSNRARFLTMCNRHFGSVVAQTIRTQKTDQFPLFLIIMGKRSSNEVLNVIQGNTTVDELMMRLMAAMEIFTAQQQEDIKDEDEREARENVKREQDEAYRLSLEADRAKREAHEREMAEQFRLEQIRKEQEEEREAIRLSLEQALPPEPKEENAEPVSKLRIRTPSGEFLERRFLASNKLQIVFDFVASKGFPWDEYKLLSTFPRRDVTQLDPNKSLLEVKLFPQETLFLEAKE
- protein production: not failed

Sequence: MHSFPPLLLLLFWGVVSHSFPATLETQEQDVDLVQKYLEKYYNLKNDGRQVEKRRNSGPVVEKLKQMQEFFGLKVTGKPDAETLKVMKQPRCGVPDVAQFVLTEGNPRWEQTHLTYRIENYTPDLPRADVDHAIEKAFQLWSNVTPLTFTKVSEGQADIMISFVRGDHRDNSPFDGPGGNLAHAFQPGPGIGGDAHFDEDERWTNNFREYNLHRVAAHELGHSLGLSHSTDIGALMYPSYTFSGDVQLAQDDIDGIQAIYGRSQNPVQPIGPQTPKACDSKLTFDAITTIRGEVMFFKDRFYMRTNPFYPEVELNFISVFWPQLPNGLEAAYEFADRDEVRFFKGNKYWAVQGQNVLHGYPKDIYSSFGFPRTVKHIDAALSEENTGKTYFFVANKYWRYDEYKRSMDPGYPKMIAHDFPGIGHKVDAVFMKDGFFYFFHGTRQYKFDPKTKRILTLQKANSWFNCRKN
- protein production: not failed

Sequence: MDGHNQNQYQNQNQIQQSQQPPLKKYVTQRRSVDVSSPYINLYYNRRHGLPNLVVEPETSYTIDIMPPNAYRGRDRVINLPSKFTHLSSNKVKHVIPAIQWTPEGRRLVVATYSGEFSLWNASSFTFETLMQAHDSAVTTMKYSHDSDWMISGDADGMIKIWQPNFSMVKEIDAAHTESIRDMAFSSNDSKFVTCSDDNILKIWNFSNGKQERVLSGHHWDVKSCDWHPEMGLIASASKDNLVKLWDPRSGNCISSILKFKHTVLKTRFQPTKGNLLMAISKDKSCRVFDIRYSMKELMCVRDETDYMTLEWHPINESMFTLACYDGSLKHFDLLQNLNEPILTIPYAHDKCITSLSYNPVGHIFATAAKDRTIRFWTRARPIDPNAYDDPTYNNKKINGWFFGINNDINAVREKSEFGAAPPPPATLEPHALPNMNGFINKKPRQEIPGIDSNIKSSTLPGLSI
- protein production: failed

Sequence: MRNSNGGRDNRKSNRDQYRKPDYAGEMLFDDEEDYDDDADYDVVDDMKAHNDDYSDSAFGPDADNYDTDDDAWHDDVAAADDDPSDEDGYYDEEYDDTEDWQDMKDSKRKKKNRVWGIILALEIVTAIVIGVLFVKSYINNTYSKMQYNELKNTHINEDLNEESVKKMTGYTNIALFGIDTRDSGMVDDGVRSDSIIICSINNDTQEVKLLSVYRDTYLELCNDSQSYEKAAHAYAYGGAQGAVNMLNKNLDLNITDYVAVNFTALTEAIDALGGIDVELKEEELYKLNQCIDEQMGVNGIYSDYVYDTGVVHLNGVQATAYSRIRSTDEGDITRTWRQRTVISKMIEAAKSAGLSRLLDCINVVVDDVASSLTESEIMDMAKSCFNYKLSTTTGFPFTIASPTMNDVSYVVACDLATNATALHRFLFNDSNYTPSATVQNISDNIVNESGYGNQLDLDTFTVEDDVDSIVNTESDDY
- protein production: failed

From a protein production outcome set (Wang et al. 2014)
